From US20100261660A1 (published 2010)

target: T1, Soluble CD28-Ig (extracellular domain of human CD28 fused to the Fc portion of human IgG1) (human, UniProt P10747 19-152, biotin-conjugated (NHS-biotin) in the FACS binding assays); test: competitive FACS on transfected cells, biotin-sCD28-Ig with FITC-sCTLA-4-Ig; grade 0-2 of CD28/CTLA-4 ratio vs WT hB7-1
T1 construct: extracellular domain; bought from R&D Systems; also called sCD28-Ig; CD28-Ig Fc; not shown: Fc portion of human IgG1

Row | Binding Score | Binder
1 | 1 | Round 2 CD28B2-8 (ligand) ITPKSVTKRVKETVMLSCDYNTSTEELTSLRIYWQKDSKMVLAILPGKVQVWPEYKNRTITDMNDNPRIVILALRLSDKGTYTCVIQKPVLKGAYKLEHLASVRLMIRADFPVPTINDLGNPSPNIRRLICSTSGGFPRPHLYWLENGEELNATNTTVSQDPGTELYMISSELDFNVTNNHSIVCLIKYGELSVSQIFPWSKPKQEPPIDQLPFWVIIPVSGALVLTAVVLYCLACRHVARWKRTRRNEETVGTERLSPIYLGSAQSSG
2 | 1 | Round 2 CD28D2-9 (ligand) ITPKSVTKRVKETVMLSCDYNTSTEELTSLRIYWQKDSKMVLAILPGKVQVWPEYKNRTITDMNDNPRIVILALRLSDSGTYTCVIQKPVLKGAYKLEHLTSVRLMIRADFPVPTINDLGNPSPNIRRLICSTSGGFPRPHLYWLENGEELNATNTTLSQDPETELYMISSELDFNVTNNHSIVCLIKYGELSVSQIFPWSKPKQEPPIDQLPFWVIIPVSGALVLTAVVLYCLACRHVARWKRTRRNEETVGTERLSPIYLGSAQSSG
3 | 1 | Round 2 CD28C6-1 (ligand) ITPKSVTKRVKETVMLSCDYSTSTEELTSLRIYWQKDSKMVLAILPGKVQVWPEYKNRTITDMNDNPRIVILALRLSDSGTYTCVIQKPVLKGAYKLEHLASVRLMIRADFPVPTINDLGNPSPNIRRLICSTSGGFPRPHLYWLENGEELNATNTTVSQDPGTELYMISSELDFNVTNNHSIVCLIKYGELSVSQIFPWSKPKQEPPIDQLPFWVIIPVSGALVLTAVVLYCLACRHGARWKRTRRNEETVGTERLSPIYLGSAQSSG
4 | 1 | Round 2 CD28E2-4 (ligand) ITPKSVTKRVKETVMLSCDYSTSTEELTSLRIYWQKDSKMVLAILPGKVQVWPEYKNRTITDMNDNPRIVILALRLSDKGTYTCVIQKPVLKGAYKLEHLASVRLMIRADFPVPTINDLGNPSPNIRRLICSTSGGFPRPHLYWLENGEELNATNTTVSQDPGTELYMISSELDFNVTNNHSIVCLIKYGELSVSQIFPWSKPKQEPPIDQLPFWVIIPVSGALVLTAVVLYCLACRHVARWKRTRRNEETVGTERLSPIYLGSAQSSG
5 | 2 | Round 2 CD28F7-2 (ligand) ITPKSVTKRVKETVMLSCDYSTSTEELTSLRIYWQKDSKMVLAILPGKVQVWPEYKNRTITDMNDNPRIVILALRLSDSGTYTCVIQKPVLKGAYKLEHLASVRLMIRADFPVPTINDLGNPSPNIRRLICSTSGGFPEPRLAWMEDGEELNAVNTTVDQDLDTELYSVSSELDFNVTNNHSIVCLIKYGELSVSQIFPWSKPKQEPPIDQLPFWVIIPVSGALVLTAVVLYCLACRHVARWKRTRRNEETVGTERLSPIYLGSAQSSG
6 | 2 | Round 2 CD28BP-4 (ligand) ITPKSVTKRVKETVMLSCDYNTSTEELTSLRIYWQKDSKMVLAILPGKVQVWPEYKNRTITDMNDNPRIVILALRLSDSGTYTCVIQKPVLKGAYKLEHLASVRLMIRADFPVPTINDLGNPSPNIRRLICSTSGGFPRPHLCWLENGEELNATNTTVSQDPGTELYMISSELDFNVTNNHSIVCLIKYGELSVSQIFPWSKPKQEPPIDQLPFWVIIPVSGALVLTAVVLYCLACRHVARWKRTRRNEETVGTERLSPIYLGSAQSSG
7 | 1 | Round 2 CD28F8-4 (ligand) ITPKSVTKRVKETVMLSCDYSTSTEELTSLRIYWQKDSKMVLAILPGKVQVWPEYKNRTITDMNDNPRIVILALRLSDSGTYTCVIQKPVLKGAYKLEHLASVRLMIRADFPVPTINDLGNPSPNIRRLICSTSGGFPRPHLYWLENGEELNATNTTLSQDPETKLYMISSELDFNVTNNHSIVCLIKYGELSVSQIFPWSKPKQEPPIDQLPFWVIIPVSGALVLTAVVLYCLACRHVARWKRTRRNEETVGTERLSPIYLGSAQSSG
8 | 2 | Round 2 CD28BP-5 (ligand) ITPKSVTKRVKETVMLSCDYSTSTEELTSLRIYWQKDSKMVLAILPGKVQVWPEYKNRTITDMNDNPRIVILALRLSDKGTYTCVVQKPVLKGAYKLEHLTSVRLMIRADFPVPTINDLGNPSPNIRRLICSTSGGFPRPHLYWLENGEELNATNTTVSQDPGTELYMISSELDFNVTNNHSIVCLIKYGELSVSQIFPWSKPKQEPPIDQLPFWVIIPVSGALVLTAVVLYCLACRHVARWKRTRRNEETVGTERLSPIYLGSAQSSG
9 | 0 | Round 2 CD28E5-2 (ligand) ITPKSVTKRVKETVMLSCDYNTSTEELTSLRIYWQKDSKMVLAILPGKVQVWPEYKNRTITDMNDNPRIVILALRLSDSGTYTCVIQKPDLKGAYKLEHLASVRLMIRADFPVPTINDLGNPSPNIRRLICSTSGGFPRPHLYWLENGEELNATNTTLSQDPETKLYMISSELDFNVTNNRSIVCLIKYGELSVSQIFPWSKPKQEPPIDQLPFWVIIPVSGALVLTAVVLYCLACRHVARWKRTRRNEETVGTERLSPIYLGSAQSSG
10 | 1 | Round 2 CD28E10-6 (ligand) ITPKSVTKRVKETVMLSCDYNTSTEELTSLRIYWQKDSKMVLAILPGKVQVWPEYKNRTITDMNDNPRIVILALRLSDSGTYTCVIQKPVLKGAYKLEHLASVRLMIRADFPVPTINDLGNPSPNIRRLICSTSGGFPRPHLYWLENGEELNATNTTLSQDPETELYMISSELDFNVTNNHSIVCLIKYGELSVSQIFPWSKPKQEPPIDQLPFWVIIPVSGALVLTAVVLYCLACRHVARWKRTRRNEETVGTERLSPIYLGSAQSSG
11 | 0 | Round 2 CD28F3-6 (ligand) ITPKSVTKRVKETVMLSCDYSTSTEELTSLRIYWQKDSKMVLAILPGKVQVWPEYKNRTITDMNDNPRIVILALRLSDSGTYTCVIQKPDLKGAYKLEHLTSVRLMIRADFPVPTINDLGNPSPNIRRLICSTSGGFPRPHLYWLENGEELNATNTTLSQDPETKLYMISSELDFNVTNNHSIVCLIKYGELSVSQIFPWSKPKQEPPIDQLPFWVIIPVSGALVLTAVVLYCLACRHVARWKRTRRNEETVGTERLSPIYLGSAQSSG
12 | 2 | Round 2 CD28BP-16 (ligand) ITPKSVTKRVKETVMLSCDYNTSTEELTSLRIYWQKDSKMVLAILPGKVQVWPEYKNRTITDMNDNPRIVILALRLSDSGTYTCVIQKPVLKGAYKLEHLTSVRLMIRADFPVPTINDLGNPSPNIRRLICSTSGGFPRPHLYWLENGEELNATNTTVSQDPGTELYMISSELDFNVTNNHSIVCLIKYGELSVSQIFPWSKPKQEPPIDQLPFWVIIPVSGALVLAAVVLYCLACRHVARWKRTRRNEETVGTERLSPIYLGSAQSSG
13 | 2 | Round 2 CD28C11-5 (ligand) ITPKSVTKRVKETVMLSCDYNTSTEELTSLRIYWQKDSKMVLAILPGKVQVWPEYKNRTITDMNDNPRIVILALRLSDSGTYTCVIQKPVLKGAYKLEHLTSVRLMIRADFPVPTINDLGNPSPNIRRLICSTSGGFPRPHLYWLENGEELNATNTTVSQDPGTELYMISSELDFNVTNNHSIACLIKYGELSVSQIFPWSKPKQEPPIDQLPFWVIIPVSGALVLTAVVLYCLACRHVARWKRTRRNEETVGTERLSPIYLGSAQSSG
14 | 0 | Round 2 CD28E9-6 (ligand) ITPKSVTKRVKETVMLSCDYNTSTEELTSLRIYWQKDSKMVLAILPGKVQVWPEYKNRTITDMNDNPRIVILALRLSDKGTYTCVIQKPDLKGAYKLEHLASVRLMIRADFPVPTINDLGNPSPNIRRLICSTSGGFPRPHLYWLENGEELNATNTTVSQDPGTELYMISSELDFNVTNNHSIVCLIKYGELSVSQIFPWSKPKQEPPIDQLPFWVIIPVSGALVLTAVVLYCLACRHVARWKRTRRNEETVGTERLSPIYLGSAQSSG
15 | 1 | Round 2 CD28G2-8 (ligand) ITPKSVTKRVKETVMLSCDYNTSTEELTSLRIYWQKDSKMVLAILPGKVQVWPEYKNRTITDMNDNPRIVILALRLSDSGTYTCVIQKPVLKGAYKLEHLASVRLMIRADFPVPSINDLGNPSPNIRRLICSTSGGFPRPHLYWLENGEELNATNTTVSQDPGTELYMISSELDFNVTNNHSIVCLIKYGELSVSQIFPWSKPKQEPPIDQLPFWVIIPVSGALVLTAVVLYCLACRHVARWKRTRRNEETVGTERLSPIYLGSAQSSG
16 | 2 | Round 2 CD28C8-6 (ligand) ITPKSVTKRVKETVMLSCDYNTSTEELTSLRIYWQKDSKMVLAILPGKVQVWPEYKNRTITDMNDNPRIVILALRLSDSGTYTCVIQKPVLKGAYKLEHLASVRLMIRADFPVPTINDLGNPSPNIRRLICSTSGGFPRPHLYWLENGEELNATNTTVSQDPGTELYMISSELGFNVTNNHSIVCLIKYGELSVSQIFPWSKPKQEPPIDQLPFWVIIPVSGALVLTAVVLYCLACRHVARWKRTRRNEETVGTERLSPIYLGSAQSSG
17 | 1 | Round 2 CD28D8-9 (ligand) ITPKSVTKRVKETVMLSCDYSTSTEELTSLRIYWQKDSKMVLAILPGKVQVWPEYKNRTITDMNDNPRIVILALRLSDSGTYTCVIQKPVLKGAYKLEHLTSVRLMIRADFPVPTINDLGNPSPNIRRLICSTSGGFPRPHLYWLENGEELNATNTTVSQDPGTELYMISSELDFNVTNNHSIVCLIKYGELSVSQIFPWSKPKQEPPIDQLPFWVIIPVSGALVLTAVVLYCLACRHVARWKRTRRNEETVGTERLSPIYLGSAQSSG
18 | 2 | Round 2 CD28BP-13 (ligand) ITPKSVTKRVKETVMLSCDYSTSTEELTSLRIYWQKDSKMVLAILPGKVQVWPEYKNRTITDMNDNPRIVILALRLSDSGTYTCVIQKPVLKGAYKLEHLASVRLMIRADFPVPTINDLGNPSPNIRRLICSTSGGFPEPRLAWMEDGEELNAVNTTVDQDLDTELYSVSSELDFNVTNNHSIVCLIKYGELSVSQIFPWSKPKQEPPIDQLPFWVIIPVSGALVLTAVVLYCLACRHVARWKRTRRNEETVGTERLSPIYLGSAQSSG
19 | 2 | Round 2 CD28BP-2 (ligand) ITPKSVTKRVKETVMLSCDYSTSTEELTSLRIYWQKDSKMVLAILPGKVQVWPEYKNRTITDMNDNPRIVILALRLSDSGTYTCVIQKPVLKGAYKLEHLASVRLMIRADFPVPTINDLGNPSPNIRRLICSTSGGFPRPHLYWLENGEELNATNTTLSQDPETKLYMISSELDFNVTNNHSIVCLIKYGELSVSQIFPWSKPKQEPPIDQLPFWVIIPVSGALVLTAVVLYRPACRHVARWKRTRRNEETVGTERLSPIYLGSAQSSG
